This series deals with the molecule itself. As to the kind of experiment: native gel or EMSA; native 8% PAGE of the unlinked enzyme (20 ug), 0.75 M Tris pH 8.8, 4 °C, 90 V for 3 h, Western blot (anti-His, anti-mt-TyrRS).

Where a chain is given by its changes, count along the chain named. Names and notes keep the numbering of the source.

Consider two proteins from paper PMC11758952, “A kinetic model for compound heterozygous pathogenic variants in Tyrosyl-tRNA synthetase gene YARS2-Associated neonatal phenotype” (The Journal of Biological Chemistry, 2024).

B1: human mitochondrial tyrosyl-tRNA synthetase (mt-TyrRS), WT/WT unlinked homodimer (enzyme, UniProt Q9Y2Z4 17-477, looked up)
chain: TLNLSVLLPLGLRKAHSGAQGLLAAQKARGLFKDFFPETGTKIELPELFDRGTASFPQTIYCGFDPTADSLHVGHLLALLGLFHLQRAGHNVIALVGGATARLGDPSGRTKEREALETERVRANARALRLGLEALAANHQQLFTDGRSWGSFTVLDNSAWYQKQHLVDFLAAVGGHFRMGTLLSRQSVQLRLKSPEGMSLAEFFYQVLQAYDFYYLFQRYGCRVQLGGSDQLGNIMSGYEFINKLTGEDVFGITVPLITSTTGAKLGKSAGNAVWLNRDKTSPFELYQFFVRQPDDSVERYLKLFTFLPLPEIDHIMQLHVKEPERRGPQKRLAAEVTKLVHGREGLDSAKRCTQALYHSSIDALEVMSDQELKELFKEAPFSEFFLDPGTSVLDTCRKANAIPDGPRGYRMITEGGVSINHQQVTNPESVLIVGQHILKNGLSLLKIGKRNFYIIKWLQL
notes: Construct provided by R. Giege; also called YARS2 enzyme; not shown: His-tag, C-terminal, kept
In the case of B1, the binding result was “binds”.

B2: human mitochondrial tyrosyl-tRNA synthetase F185L, F185L/F185L unlinked homodimer (enzyme, UniProt Q9Y2Z4 17-477, looked up)
chain: B1 chain with F169L
notes: Paternally inherited variant of the patient; also called p.F185L; not shown: His-tag, C-terminal, kept
Regarding B2, the binding result is listed as “binds”.
